Columns and labels:
[1] = molecular target: death receptor 5 (DR5, TRAIL-R2) on cells (UniProt O14763); experiment: cell-based or functional assay
rhTRAIL variant D218H = experiment: competitive ELISA, soluble DR5-Ig varied, immobilised DR4-Ig
rhTRAIL variant D218Y = experiment: as above
[2] = molecular target: death receptor 4 (DR4, TRAIL-R1) on cells (UniProt O00220); experiment: cell-based or functional assay

WT rhTRAIL (TRAIL amino acids 114-281 preceded by a methionine) (ligand), sequence (P50591 114-281): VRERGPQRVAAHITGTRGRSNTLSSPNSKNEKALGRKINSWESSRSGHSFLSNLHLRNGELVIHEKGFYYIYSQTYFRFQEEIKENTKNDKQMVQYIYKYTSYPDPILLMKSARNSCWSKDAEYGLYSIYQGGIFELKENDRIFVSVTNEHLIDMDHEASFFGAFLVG

| Substance | apoptosis (Annexin V positivity) in Colo205 cells [1] [ng/mL] | fold less efficient in achieving 50% reduction of binding, against rhTRAIL WT (rhTRAIL variant D218H) [fold] | fold less efficient in achieving 50% reduction of binding, against rhTRAIL WT (rhTRAIL variant D218Y) [fold] | apoptosis (Annexin V staining) in EM-2 cells, 24 h; fold lower concentration than WT [2] [fold] | apoptosis (Annexin V staining) in ML-1 cells, 24 h; fold lower concentration than WT [2] [fold] |
| --- | --- | --- | --- | --- | --- |
| WT rhTRAIL (TRAIL amino acids 114-281 preceded by a methionine) (ligand) | 20 | – | – | – | – |
| DR5-Ig receptor chimera (from UniProt O14763 56-182) (Fc fusion) | – | > 9 | > 9 | – | – |
| rhTRAIL variant S215D (ligand) | – | – | – | 5 | 2 |
| rhTRAIL variant R149I (ligand) | – | – | – | 5 | 2 |

From patent publication US20110200552A1
